B1: 243 (protein)
chain: MTTRTRILTAFLSLLAANACAADAAPAAPHTVVLRAARMFDGASGKLVDHPQLTIVGNKIVRIAQGDKAEVPAGAEVVDLGDATLLPGFIDAHVHLSGQSSDNWYGDFFDNMMRFPAEQALYGAYYARITLEAGFTSVRDVGSTDWVALGLRNAIDAGKVPGPRMLVSNYAVGSTGGHADQDPIPPHKLPLAGPLQGVCNGPEECRAAVRYQIKYGANVIKFMPSGGVLSLSDPVDAPELSQDEMNAVIGESHAWGRKVAAHAHGDKAAKMAVAAGVDSIEHGSFIEDDTLRAMKAKNVYLVPTISAIAHVEEKIGTFPPVIAEKGRAAAASLRQTFRHAVQIGVPIALGTDAGVGAHGSNAREFRYMVENGLTPAQALLAGTANAARLLGTFDRVGTLEAGKLADVVAVPGNPIADITVTERPLFVMKDGVVVRRDAVR
modifications: exemplary polypeptide
B2: 274 (protein)
chain: B1 chain with Q119K, S332H
modifications: exemplary polypeptide
B3: 246 (protein)
chain: B1 chain with S332H, H339N
modifications: exemplary polypeptide
B4: 286 (protein)
chain: B1 chain with L231E, V321T, S332H
modifications: exemplary polypeptide
B5: 261 (protein)
chain: B1 chain with G98S, S332H
modifications: exemplary polypeptide
B6: 273 (protein)
chain: B1 chain with Q119H, S332H
modifications: exemplary polypeptide
B7: 248 (protein)
chain: B1 chain with S332H, A353S
modifications: exemplary polypeptide
B8: 259 (protein)
chain: B1 chain with H310D, E313A, S332H
modifications: exemplary polypeptide
B9: 260 (protein)
chain: B1 chain with H310E, E313A, S332H
modifications: exemplary polypeptide
B10: 247 (protein)
chain: B1 chain with S332H, H339S
modifications: exemplary polypeptide
B11: 285 (protein)
chain: B1 chain with V235L, S332H
modifications: exemplary polypeptide
B12: 268 (protein)
chain: B1 chain with M112F, S332H
modifications: exemplary polypeptide
B13: 281 (protein)
chain: B1 chain with L231F, S332H
modifications: exemplary polypeptide
B14: 253 (protein)
chain: B1 chain with S332H, N361Q
modifications: exemplary polypeptide
B15: 262 (protein)
chain: B1 chain with G98V, S332H
modifications: exemplary polypeptide
B16: 256 (protein)
chain: B1 chain with H187N, K188R, S332H
modifications: exemplary polypeptide
B17: 284 (protein)
chain: B1 chain with V235F, S332H
modifications: exemplary polypeptide
B18: 245 (protein)
chain: B1 chain with S332H, H339K
modifications: exemplary polypeptide
B19: 244 (protein)
chain: B1 chain with S332H, H339E
modifications: exemplary polypeptide
B20: 272 (protein)
chain: B1 chain with Q119E, S332H
modifications: exemplary polypeptide
B21: 280 (protein)
chain: B1 chain with V198T, S332H
modifications: exemplary polypeptide
B22: 282 (protein)
chain: B1 chain with V235A, S332H
modifications: exemplary polypeptide
B23: 275 (protein)
chain: B1 chain with Q119M, S332H
modifications: exemplary polypeptide

Residue numbers refer to the chain shown, from its start.

One series is described as follows: OTA detoxification activity assay (specific activity, fluorescence reduction ex/em 390/450 nm). It is filed as biochemical. Conditions: pH 6.0; SEQ ID NO: 1 = 100%. In short, it runs like this: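 Recombinant enzyme preparation with 200 ng/mL OTA in 100 mM sodium phosphate, at pH 6.0 and pH 7.5, 37° C. Degradation followed as the fall in fluorescence at ex/em 390/450 nm. Specific activity taken from the initial linear slope; one unit degrades 1 μmol OTA per min at a starting OTA of […].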
Regarding B1, the “Specific OTA detoxification activities in % compared to the enzyme of SEQ ID NO: 1, pH 6.0” value is given as 37%.

Regarding B2, the “Specific OTA detoxification activities in % compared to the enzyme of SEQ ID NO: 1, pH 6.0” value was found to be 100%.

Turning to B3, the “Specific OTA detoxification activities in % compared to the enzyme of SEQ ID NO: 1, pH 6.0” value is 113%.

In the case of B4, the “Specific OTA detoxification activities in % compared to the enzyme of SEQ ID NO: 1, pH 6.0” value was determined as 39%.

For the molecule B5, the “Specific OTA detoxification activities in % compared to the enzyme of SEQ ID NO: 1, pH 6.0” value was found to be 78%.

Regarding B6, the “Specific OTA detoxification activities in % compared to the enzyme of SEQ ID NO: 1, pH 6.0” value worked out at 134%.

Take B7: the “Specific OTA detoxification activities in % compared to the enzyme of SEQ ID NO: 1, pH 6.0” value turned out to be 131%.

On to B8, for which the “Specific OTA detoxification activities in % compared to the enzyme of SEQ ID NO: 1, pH 6.0” value is reported as 56%.

Turning to B9, the “Specific OTA detoxification activities in % compared to the enzyme of SEQ ID NO: 1, pH 6.0” value is listed as 83%.

For the molecule B10, the “Specific OTA detoxification activities in % compared to the enzyme of SEQ ID NO: 1, pH 6.0” value was determined as 80%.

For the molecule B11, the “Specific OTA detoxification activities in % compared to the enzyme of SEQ ID NO: 1, pH 6.0” value was 28%.

On to B12, for which the “Specific OTA detoxification activities in % compared to the enzyme of SEQ ID NO: 1, pH 6.0” value came to 25%.

As to B13, the “Specific OTA detoxification activities in % compared to the enzyme of SEQ ID NO: 1, pH 6.0” value is listed as 90%.

B14: the “Specific OTA detoxification activities in % compared to the enzyme of SEQ ID NO: 1, pH 6.0” value is recorded as 93%.

Consider B15, for which the “Specific OTA detoxification activities in % compared to the enzyme of SEQ ID NO: 1, pH 6.0” value is recorded as 116%.

Turning to B16, the “Specific OTA detoxification activities in % compared to the enzyme of SEQ ID NO: 1, pH 6.0” value was found to be 116%.

With B17, the “Specific OTA detoxification activities in % compared to the enzyme of SEQ ID NO: 1, pH 6.0” value was determined as 48%.

Take B18: the “Specific OTA detoxification activities in % compared to the enzyme of SEQ ID NO: 1, pH 6.0” value stood at 62%.

In the case of B19, the “Specific OTA detoxification activities in % compared to the enzyme of SEQ ID NO: 1, pH 6.0” value was 127%.

As to B20, the “Specific OTA detoxification activities in % compared to the enzyme of SEQ ID NO: 1, pH 6.0” value is 121%.

Take B21: the “Specific OTA detoxification activities in % compared to the enzyme of SEQ ID NO: 1, pH 6.0” value is given as 70%.

As to B22, the “Specific OTA detoxification activities in % compared to the enzyme of SEQ ID NO: 1, pH 6.0” value is listed as 77%.

For B23, the “Specific OTA detoxification activities in % compared to the enzyme of SEQ ID NO: 1, pH 6.0” value was found to be 71%.

Still in this series, the particulars now being: pH 7.5; SEQ ID NO: 1 = 100%.
For B1, the “Specific OTA detoxification activities in % compared to the enzyme of SEQ ID NO: 1, pH 7.5” value is on record as 77%.

Take B2: the “Specific OTA detoxification activities in % compared to the enzyme of SEQ ID NO: 1, pH 7.5” value is given as 100%.

As to B3, the “Specific OTA detoxification activities in % compared to the enzyme of SEQ ID NO: 1, pH 7.5” value is listed as 89%.

Turning to B4, the “Specific OTA detoxification activities in % compared to the enzyme of SEQ ID NO: 1, pH 7.5” value was determined as 17%.

Regarding B5, the “Specific OTA detoxification activities in % compared to the enzyme of SEQ ID NO: 1, pH 7.5” value was determined as 95%.

B6: the “Specific OTA detoxification activities in % compared to the enzyme of SEQ ID NO: 1, pH 7.5” value stood at 76%.

Take B7: the “Specific OTA detoxification activities in % compared to the enzyme of SEQ ID NO: 1, pH 7.5” value was determined as 91%.

Consider B8, for which the “Specific OTA detoxification activities in % compared to the enzyme of SEQ ID NO: 1, pH 7.5” value came to 54%.

With B9, the “Specific OTA detoxification activities in % compared to the enzyme of SEQ ID NO: 1, pH 7.5” value was determined as 81%.

As to B10, the “Specific OTA detoxification activities in % compared to the enzyme of SEQ ID NO: 1, pH 7.5” value was found to be 100%.

As for B11, the “Specific OTA detoxification activities in % compared to the enzyme of SEQ ID NO: 1, pH 7.5” value was 21%.

Take B12: the “Specific OTA detoxification activities in % compared to the enzyme of SEQ ID NO: 1, pH 7.5” value was 39%.

As to B13, the “Specific OTA detoxification activities in % compared to the enzyme of SEQ ID NO: 1, pH 7.5” value is recorded as 50%.

For B14, the “Specific OTA detoxification activities in % compared to the enzyme of SEQ ID NO: 1, pH 7.5” value is 87%.

As for B15, the “Specific OTA detoxification activities in % compared to the enzyme of SEQ ID NO: 1, pH 7.5” value was determined as 106%.

B16: the “Specific OTA detoxification activities in % compared to the enzyme of SEQ ID NO: 1, pH 7.5” value is recorded as 101%.

Regarding B17, the “Specific OTA detoxification activities in % compared to the enzyme of SEQ ID NO: 1, pH 7.5” value came out at 23%.

Turning to B18, the “Specific OTA detoxification activities in % compared to the enzyme of SEQ ID NO: 1, pH 7.5” value is 59%.

As to B19, the “Specific OTA detoxification activities in % compared to the enzyme of SEQ ID NO: 1, pH 7.5” value was determined as 93%.

As for B20, the “Specific OTA detoxification activities in % compared to the enzyme of SEQ ID NO: 1, pH 7.5” value worked out at 86%.

Take B21: the “Specific OTA detoxification activities in % compared to the enzyme of SEQ ID NO: 1, pH 7.5” value was found to be 50%.

With B22, the “Specific OTA detoxification activities in % compared to the enzyme of SEQ ID NO: 1, pH 7.5” value was determined as 41%.

For the molecule B23, the “Specific OTA detoxification activities in % compared to the enzyme of SEQ ID NO: 1, pH 7.5” value amounted to 85%.

Another series can be described thus: Enzymatic activity comparison: activity remaining after 65° C. for 10 min at pH 6.0, relative to SEQ ID NO: 1. It is filed as physicochemical.
Settings: not given
Here is the method: To compare the temperature behavior and thermostability of selected enzymes to one another, enzyme was incubated at 65° C. for 10 min at pH 6.0. The enzymatic activity remaining after incubation was compared to the remaining activity of the enzyme of SEQ ID NO: 1 after incubation, the latter being set to 100%, see Table 16.
Turning to B1, the “Enzymatic activity remaining after incubation, compared to SEQ ID NO: 1 (set to 100%)” value is reported as 41%.

Consider B2, for which the “Enzymatic activity remaining after incubation, compared to SEQ ID NO: 1 (set to 100%)” value is listed as 32%.

For the molecule B3, the “Enzymatic activity remaining after incubation, compared to SEQ ID NO: 1 (set to 100%)” value came out at 27%.

Take B4: the “Enzymatic activity remaining after incubation, compared to SEQ ID NO: 1 (set to 100%)” value came to 33%.

Consider B5, for which the “Enzymatic activity remaining after incubation, compared to SEQ ID NO: 1 (set to 100%)” value was found to be 60%.

Regarding B6, the “Enzymatic activity remaining after incubation, compared to SEQ ID NO: 1 (set to 100%)” value was 34%.

Consider B7, for which the “Enzymatic activity remaining after incubation, compared to SEQ ID NO: 1 (set to 100%)” value was found to be 38%.

As to B8, the “Enzymatic activity remaining after incubation, compared to SEQ ID NO: 1 (set to 100%)” value stood at 41%.

Consider B9, for which the “Enzymatic activity remaining after incubation, compared to SEQ ID NO: 1 (set to 100%)” value is 27%.

As to B10, the “Enzymatic activity remaining after incubation, compared to SEQ ID NO: 1 (set to 100%)” value was determined as 53%.

B11: the “Enzymatic activity remaining after incubation, compared to SEQ ID NO: 1 (set to 100%)” value is recorded as 63%.

B12: the “Enzymatic activity remaining after incubation, compared to SEQ ID NO: 1 (set to 100%)” value was determined as 28%.

For B13, the “Enzymatic activity remaining after incubation, compared to SEQ ID NO: 1 (set to 100%)” value was found to be 13%.

As for B14, the “Enzymatic activity remaining after incubation, compared to SEQ ID NO: 1 (set to 100%)” value worked out at 22%.

B15: the “Enzymatic activity remaining after incubation, compared to SEQ ID NO: 1 (set to 100%)” value is 40%.

As to B16, the “Enzymatic activity remaining after incubation, compared to SEQ ID NO: 1 (set to 100%)” value was determined as 36%.

B17: the “Enzymatic activity remaining after incubation, compared to SEQ ID NO: 1 (set to 100%)” value came out at 13%.

B18: the “Enzymatic activity remaining after incubation, compared to SEQ ID NO: 1 (set to 100%)” value stood at 37%.

Turning to B19, the “Enzymatic activity remaining after incubation, compared to SEQ ID NO: 1 (set to 100%)” value came out at 33%.

B20: the “Enzymatic activity remaining after incubation, compared to SEQ ID NO: 1 (set to 100%)” value came out at 41%.

As to B21, the “Enzymatic activity remaining after incubation, compared to SEQ ID NO: 1 (set to 100%)” value was 31%.

Regarding B22, the “Enzymatic activity remaining after incubation, compared to SEQ ID NO: 1 (set to 100%)” value turned out to be 28%.

Regarding B23, the “Enzymatic activity remaining after incubation, compared to SEQ ID NO: 1 (set to 100%)” value is given as 25%.

These data come from patent US20240352438A1, “MEANS AND METHODS FOR DETOXIFYING OCHRATOXIN A” (DSM Austria GmbH, priority 2021, published 2024).
